According to PMC10501769 (eLife, 2023):

Target: the molecule itself
Assay: SEC

B1: His-tagged Rv0158 protein of Mycobacterium tuberculosis H37Rv (natural protein)
chain: MPSDTSPNGLSRREELLAVATKLFAARGYHGTRMDDVADVIGLNKATVYHYYASKSLILFDIYRQAAEGTLAAVHDDPSWTAREALYQYTVRLLTAIASNPERAAVYFQEQPYITEWFTSEQVAEVREKEQQVYEHVHGLIDRGIASGEFYECDSHVVALGYIGMTLGSYRWLRPSGRRTAKEIAAEFSTALLRGLIRDESIRNQSPLGTRKET
notes: also called Histidine-tagged Rv0158; hexahistidine-tagged Rv0158 protein
- stoichiometry N: 2
